Data published in patent US6051698.
Like-named read-outs stand apart in the source and are kept apart here.

Assays:
[1] = tested on: T1, VEGF165 (Homo sapiens), P15692-4; assay: filter; conditions: 2'-F pyrimidines, 2'-OH purines, 37 C
T1 sequence: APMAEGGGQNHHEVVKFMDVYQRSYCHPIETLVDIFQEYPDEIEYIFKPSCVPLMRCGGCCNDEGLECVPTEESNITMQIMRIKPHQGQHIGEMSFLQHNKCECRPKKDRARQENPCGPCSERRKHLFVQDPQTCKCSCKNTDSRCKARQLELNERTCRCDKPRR

[2] = tested on: VEGF165 (Homo sapiens), P15692-4; conditions: 2'-NH2 pyrimidines, 2'-OMe purines; CITED US 5811533; cited from earlier work

Substance | Kd ([1]; single determination) [nM] | Kd [1] [nM] | other results
GGGAGGACGAUGCGGAGAAUCAGUGAAUGCUUAUAAAUCUCGYGUCAGACGACUCGCCCGA [VT30.3] | 0.005 | – | –
GGGAGGACGAUGCGGAYCAACCGAUUGACGUUAUGGGACGCUGGUCAGACGACUCGCCCGA [VP30.5] | 0.008 | – | –
GGGAGGACGAUGCGGCGGYACUUUGGAAGAAUUGAAUUUCCCGCUCAGACGACUCGCCCGA [VP30.26] | 0.01 | – | –
GGGAGGACGAUGCGGUAGGAAGAAUUGGAAGCGCAUUUUCCUCGYCAGACGACUCGCCCGA [VP30.22] | – | 0.02 | –
GGGAGGACGAUGCGGYGAACCGAUGGAAUUUUUGGACGCUCGCCUCAGACGACUCGCCCGA [VP30.2] | – | 0.01 | –
NX-213 | – | – | Kd [2]: 0.14 nM
